Measurements from the supplement of paper PMC10567573.

B1: FBXO3 (parent)
chain: AGGFQQRQGLKYCLPLTFCIHTGL
B2: RAB11A (parent)
chain: AVPTDEARAFAEKNGLSFIETSAL

Variants of: B1
Experiment: protein stability index of a GFP-peptide fusion (GPS, HEK-293T) (PSI 1-6); higher = more stable
Conditions: c terminus: a fixed tail appended
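Note: lentivirally expressed fusions sorted by FACS into six bins by GFP to DsRed ratio, PSI derived from sequencing read proportions per bin multiplied by bin number.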

Variant	protein stability index
AGGFQQRQGLKYCHPLTFCIHTGL [L14H]	1.75
AGGFQQRQGLKYCIPLTFCIHTGL [L14I]	4.28
AGGFQQRQGLKYCKPLTFCIHTGL [L14K]	2.73
AGGFQQRQGLKYCMPLTFCIHTGL [L14M]	2.42
AGGFQQRQGLKYCNPLTFCIHTGL [L14N]	2.34
AGGFQQRQGLKYCPPLTFCIHTGL [L14P]	1.56
AGGFQQRQGLKYCQPLTFCIHTGL [L14Q]	2.57
AGGFQQRQGLKYCRPLTFCIHTGL [L14R]	2.88
AGGFQQRQGLKYCSPLTFCIHTGL [L14S]	2.67
AGGFQQRQGLKYCTPLTFCIHTGL [L14T]	1.84
AGGFQQRQGLKYCVPLTFCIHTGL [L14V]	4.27
AGGFQQRQGLKYCYPLTFCIHTGL [L14Y]	2.16
AGGFQQRQGLKYCLALTFCIHTGL [P15A]	2.77
AGGFQQRQGLKYCLCLTFCIHTGL [P15C]	2.57
AGGFQQRQGLKYCLFLTFCIHTGL [P15F]	2.95
AGGFQQRQGLKYCLGLTFCIHTGL [P15G]	2.33
AGGFQQRQGLKYCLILTFCIHTGL [P15I]	3.05
AGGFQQRQGLKYCLKLTFCIHTGL [P15K]	1.13
AGGFQQRQGLKYCLLLTFCIHTGL [P15L]	2.01
AGGFQQRQGLKYCLMLTFCIHTGL [P15M]	2.93
AGGFQQRQGLKYCLQLTFCIHTGL [P15Q]	2.27
AGGFQQRQGLKYCLRLTFCIHTGL [P15R]	2.51
AGGFQQRQGLKYCLSLTFCIHTGL [P15S]	2.81
AGGFQQRQGLKYCLWLTFCIHTGL [P15W]	1.61
AGGFQQRQGLKYCLPATFCIHTGL [L16A]	2.44
AGGFQQRQGLKYCLPCTFCIHTGL [L16C]	1.66

Variant	protein stability index
AGGFQQRQGLKYCLPDTFCIHTGL [L16D]	1.68
AGGFQQRQGLKYCLPETFCIHTGL [L16E]	2.03
AGGFQQRQGLKYCLPFTFCIHTGL [L16F]	3.56
AGGFQQRQGLKYCLPHTFCIHTGL [L16H]	2.58
AGGFQQRQGLKYCLPITFCIHTGL [L16I]	3.02
AGGFQQRQGLKYCLPKTFCIHTGL [L16K]	2.95
AGGFQQRQGLKYCLPMTFCIHTGL [L16M]	4.03
AGGFQQRQGLKYCLPNTFCIHTGL [L16N]	1.51
AGGFQQRQGLKYCLPPTFCIHTGL [L16P]	2.75
AGGFQQRQGLKYCLPQTFCIHTGL [L16Q]	1.52
AGGFQQRQGLKYCLPRTFCIHTGL [L16R]	2.91
AGGFQQRQGLKYCLPSTFCIHTGL [L16S]	2.17
AGGFQQRQGLKYCLPTTFCIHTGL [L16T]	2.53
AGGFQQRQGLKYCLPWTFCIHTGL [L16W]	2.89
AGGFQQRQGLKYCLPYTFCIHTGL [L16Y]	2.33
AGGFQQRQGLKYCLPLCFCIHTGL [T17C]	2.73
AGGFQQRQGLKYCLPLDFCIHTGL [T17D]	1.55
AGGFQQRQGLKYCLPLEFCIHTGL [T17E]	4.01
AGGFQQRQGLKYCLPLFFCIHTGL [T17F]	1.67
AGGFQQRQGLKYCLPLGFCIHTGL [T17G]	2.31
AGGFQQRQGLKYCLPLHFCIHTGL [T17H]	3.39
AGGFQQRQGLKYCLPLIFCIHTGL [T17I]	2.65
AGGFQQRQGLKYCLPLKFCIHTGL [T17K]	2.75
AGGFQQRQGLKYCLPLLFCIHTGL [T17L]	2.11
AGGFQQRQGLKYCLPLMFCIHTGL [T17M]	3.43
AGGFQQRQGLKYCLPLNFCIHTGL [T17N]	1.66

Variant	protein stability index
AGGFQQRQGLKYCLPLPFCIHTGL [T17P]	2.59
AGGFQQRQGLKYCLPLQFCIHTGL [T17Q]	2.4
AGGFQQRQGLKYCLPLRFCIHTGL [T17R]	2.87
AGGFQQRQGLKYCLPLVFCIHTGL [T17V]	3.17
AGGFQQRQGLKYCLPLWFCIHTGL [T17W]	3.79
AGGFQQRQGLKYCLPLYFCIHTGL [T17Y]	2.69
AGGFQQRQGLKYCLPLTACIHTGL [F18A]	2.38
AGGFQQRQGLKYCLPLTDCIHTGL [F18D]	1.67
AGGFQQRQGLKYCLPLTECIHTGL [F18E]	2.36
AGGFQQRQGLKYCLPLTGCIHTGL [F18G]	1.1
AGGFQQRQGLKYCLPLTHCIHTGL [F18H]	1.77
AGGFQQRQGLKYCLPLTICIHTGL [F18I]	2.93
AGGFQQRQGLKYCLPLTKCIHTGL [F18K]	1.89
AGGFQQRQGLKYCLPLTLCIHTGL [F18L]	3.1
AGGFQQRQGLKYCLPLTMCIHTGL [F18M]	2.41
AGGFQQRQGLKYCLPLTNCIHTGL [F18N]	1.95
AGGFQQRQGLKYCLPLTPCIHTGL [F18P]	1.68
AGGFQQRQGLKYCLPLTQCIHTGL [F18Q]	2.47
AGGFQQRQGLKYCLPLTRCIHTGL [F18R]	1.05
AGGFQQRQGLKYCLPLTSCIHTGL [F18S]	1.4
AGGFQQRQGLKYCLPLTTCIHTGL [F18T]	1.19
AGGFQQRQGLKYCLPLTVCIHTGL [F18V]	4.06
AGGFQQRQGLKYCLPLTYCIHTGL [F18Y]	2.71
AGGFQQRQGLKYCLPLTFAIHTGL [C19A]	3.9
AGGFQQRQGLKYCLPLTFDIHTGL [C19D]	1.46
AGGFQQRQGLKYCLPLTFEIHTGL [C19E]	3.11

Variant	protein stability index
AGGFQQRQGLKYCLPLTFFIHTGL [C19F]	2.44
AGGFQQRQGLKYCLPLTFGIHTGL [C19G]	1.97
AGGFQQRQGLKYCLPLTFHIHTGL [C19H]	2.66
AGGFQQRQGLKYCLPLTFIIHTGL [C19I]	1.6
AGGFQQRQGLKYCLPLTFKIHTGL [C19K]	2.21
AGGFQQRQGLKYCLPLTFLIHTGL [C19L]	2.86
AGGFQQRQGLKYCLPLTFMIHTGL [C19M]	2.71
AGGFQQRQGLKYCLPLTFNIHTGL [C19N]	2.04
AGGFQQRQGLKYCLPLTFPIHTGL [C19P]	1.87
AGGFQQRQGLKYCLPLTFQIHTGL [C19Q]	1.74
AGGFQQRQGLKYCLPLTFRIHTGL [C19R]	2.8
AGGFQQRQGLKYCLPLTFSIHTGL [C19S]	2.64
AGGFQQRQGLKYCLPLTFTIHTGL [C19T]	3.13
AGGFQQRQGLKYCLPLTFVIHTGL [C19V]	2.83
AGGFQQRQGLKYCLPLTFYIHTGL [C19Y]	2.67
AGGFQQRQGLKYCLPLTFCAHTGL [I20A]	1.89
AGGFQQRQGLKYCLPLTFCCHTGL [I20C]	3.77
AGGFQQRQGLKYCLPLTFCDHTGL [I20D]	2.93
AGGFQQRQGLKYCLPLTFCEHTGL [I20E]	2.95
AGGFQQRQGLKYCLPLTFCFHTGL [I20F]	2.34
AGGFQQRQGLKYCLPLTFCGHTGL [I20G]	2.69
AGGFQQRQGLKYCLPLTFCKHTGL [I20K]	1.6
AGGFQQRQGLKYCLPLTFCLHTGL [I20L]	3.23
AGGFQQRQGLKYCLPLTFCMHTGL [I20M]	2.73
AGGFQQRQGLKYCLPLTFCNHTGL [I20N]	2.33
AGGFQQRQGLKYCLPLTFCPHTGL [I20P]	2.11

Variant	protein stability index
AGGFQQRQGLKYCLPLTFCQHTGL [I20Q]	2.62
AGGFQQRQGLKYCLPLTFCRHTGL [I20R]	3.02
AGGFQQRQGLKYCLPLTFCSHTGL [I20S]	2.43
AGGFQQRQGLKYCLPLTFCTHTGL [I20T]	2.56
AGGFQQRQGLKYCLPLTFCVHTGL [I20V]	2.78
AGGFQQRQGLKYCLPLTFCWHTGL [I20W]	1.25
AGGFQQRQGLKYCLPLTFCICTGL [H21C]	3.66
AGGFQQRQGLKYCLPLTFCIDTGL [H21D]	2.99
AGGFQQRQGLKYCLPLTFCIETGL [H21E]	1.98
AGGFQQRQGLKYCLPLTFCIFTGL [H21F]	3.32
AGGFQQRQGLKYCLPLTFCIGTGL [H21G]	2.73
AGGFQQRQGLKYCLPLTFCIITGL [H21I]	2.36
AGGFQQRQGLKYCLPLTFCIKTGL [H21K]	2.03
AGGFQQRQGLKYCLPLTFCILTGL [H21L]	2.46
AGGFQQRQGLKYCLPLTFCIMTGL [H21M]	1.72
AGGFQQRQGLKYCLPLTFCIPTGL [H21P]	2.76
AGGFQQRQGLKYCLPLTFCIQTGL [H21Q]	2.73
AGGFQQRQGLKYCLPLTFCISTGL [H21S]	2.72
AGGFQQRQGLKYCLPLTFCITTGL [H21T]	2.59
AGGFQQRQGLKYCLPLTFCIVTGL [H21V]	3.83
AGGFQQRQGLKYCLPLTFCIWTGL [H21W]	2.15
AGGFQQRQGLKYCLPLTFCIYTGL [H21Y]	3.41
AGGFQQRQGLKYCLPLTFCIHAGL [T22A]	1.86
AGGFQQRQGLKYCLPLTFCIHCGL [T22C]	2.09
AGGFQQRQGLKYCLPLTFCIHDGL [T22D]	1.27
AGGFQQRQGLKYCLPLTFCIHEGL [T22E]	2.24

Variant	protein stability index
AGGFQQRQGLKYCLPLTFCIHHGL [T22H]	2.17
AGGFQQRQGLKYCLPLTFCIHKGL [T22K]	2.49
AGGFQQRQGLKYCLPLTFCIHLGL [T22L]	2.59
AGGFQQRQGLKYCLPLTFCIHMGL [T22M]	2.18
AGGFQQRQGLKYCLPLTFCIHNGL [T22N]	3.55
AGGFQQRQGLKYCLPLTFCIHPGL [T22P]	3.88
AGGFQQRQGLKYCLPLTFCIHQGL [T22Q]	2.23
AGGFQQRQGLKYCLPLTFCIHRGL [T22R]	2.2
AGGFQQRQGLKYCLPLTFCIHSGL [T22S]	3.29
AGGFQQRQGLKYCLPLTFCIHVGL [T22V]	3.1
AGGFQQRQGLKYCLPLTFCIHWGL [T22W]	2.86
AGGFQQRQGLKYCLPLTFCIHYGL [T22Y]	3.75
AGGFQQRQGLKYCLPLTFCIHTAL [G23A]	3.52
AGGFQQRQGLKYCLPLTFCIHTCL [G23C]	3.16
AGGFQQRQGLKYCLPLTFCIHTDL [G23D]	2.58
AGGFQQRQGLKYCLPLTFCIHTEL [G23E]	2.4
AGGFQQRQGLKYCLPLTFCIHTFL [G23F]	3.1
AGGFQQRQGLKYCLPLTFCIHTIL [G23I]	1.85
AGGFQQRQGLKYCLPLTFCIHTKL [G23K]	2.81
AGGFQQRQGLKYCLPLTFCIHTLL [G23L]	2.67
AGGFQQRQGLKYCLPLTFCIHTML [G23M]	2.31
AGGFQQRQGLKYCLPLTFCIHTNL [G23N]	2.97
AGGFQQRQGLKYCLPLTFCIHTPL [G23P]	3.02
AGGFQQRQGLKYCLPLTFCIHTQL [G23Q]	3.06
AGGFQQRQGLKYCLPLTFCIHTRL [G23R]	3.05
AGGFQQRQGLKYCLPLTFCIHTVL [G23V]	3.1

Variant	protein stability index
AGGFQQRQGLKYCLPLTFCIHTWL [G23W]	2.97
AGGFQQRQGLKYCLPLTFCIHTGA [L24A]	2.48
AGGFQQRQGLKYCLPLTFCIHTGC [L24C]	2.15
AGGFQQRQGLKYCLPLTFCIHTGD [L24D]	2.42
AGGFQQRQGLKYCLPLTFCIHTGE [L24E]	3.16
AGGFQQRQGLKYCLPLTFCIHTGF [L24F]	2.33
AGGFQQRQGLKYCLPLTFCIHTGG [L24G]	2.74
AGGFQQRQGLKYCLPLTFCIHTGH [L24H]	2.7
AGGFQQRQGLKYCLPLTFCIHTGI [L24I]	2.69
AGGFQQRQGLKYCLPLTFCIHTGK [L24K]	1.66
AGGFQQRQGLKYCLPLTFCIHTGM [L24M]	2.99
AGGFQQRQGLKYCLPLTFCIHTGN [L24N]	2.3
AGGFQQRQGLKYCLPLTFCIHTGP [L24P]	1.88
AGGFQQRQGLKYCLPLTFCIHTGQ [L24Q]	1.96
AGGFQQRQGLKYCLPLTFCIHTGR [L24R]	2.73
AGGFQQRQGLKYCLPLTFCIHTGS [L24S]	2.14
AGGFQQRQGLKYCLPLTFCIHTGT [L24T]	2.42
AGGFQQRQGLKYCLPLTFCIHTGV [L24V]	3.48
AGGFQQRQGLKYCLPLTFCIHTGW [L24W]	2.7
AGGFQQRQGLKYCLPLTFCIHTGY [L24Y]	2.45

Variants of: B2
Experiment: as above
Conditions: c terminus: a fixed tail appended

Variant	protein stability index
CVPTDEARAFAEKNGLSFIETSAL [A1C]	1.45
DVPTDEARAFAEKNGLSFIETSAL [A1D]	2.82
EVPTDEARAFAEKNGLSFIETSAL [A1E]	2.72
FVPTDEARAFAEKNGLSFIETSAL [A1F]	3.39
GVPTDEARAFAEKNGLSFIETSAL [A1G]	2.77
HVPTDEARAFAEKNGLSFIETSAL [A1H]	2.63
IVPTDEARAFAEKNGLSFIETSAL [A1I]	2.57
KVPTDEARAFAEKNGLSFIETSAL [A1K]	2.8
LVPTDEARAFAEKNGLSFIETSAL [A1L]	2.28
MVPTDEARAFAEKNGLSFIETSAL [A1M]	2.41
NVPTDEARAFAEKNGLSFIETSAL [A1N]	2.4
PVPTDEARAFAEKNGLSFIETSAL [A1P]	2.38
